Test system: KKAy mice
Experiment: Enho 1 ip for 3 days in KKAy mice (Examples 16-18)
Format: in vivo, mouse
Description: (§1) The effect of Enho-1 upon weight loss was tested over the course of 3 days using KKAy mice. The mice were fed Breeder Chow (Purina 5015) and were approximately 12-14 weeks of age at the start of the experiment. Six control mice received vehicle only while six test mice each received doses of either 900 nmol/kg/d or 9000 nmol/kg/d. The injections were given as 3 intraperitoneal (ip) injections at 0600, 1400 and 2000 h on days 1 and 2; over the 3 day period, the mice received a total of 7 injections. All animals were euthanized 5 hours after the last injection given the morning of the third day. Food was removed after the final injection.
as §1, with “insulin and glucose” for “weight loss”, “while five or” for “while”, “nmol/kg/d, respectively.” for “nmol/kg/d.”, “ip” for “intraperitoneal (ip)”, “injection. The HOMA-IR for each treatment was calculated using the following formula: ((glucose mg/dL÷18)×(insulin ng/ml×25.05))÷22.5” for “injection.”
as §1, with “liver weight, liver lipid content and liver TG” for “weight loss”, “while five or” for “while”, “nmol/kg/d, respectively.” for “nmol/kg/d.”, “ip” for “intraperitoneal (ip)”

[1] = 900 nmol/kg/d ip, listed as Enho-1
[2] = 9000 nmol/kg/d ip, listed as Enho-1

B1: Enho 1: human Enho 1, a 76 amino acid peptide having the sequence SEQ ID NO: 14 (peptide, listed as Homo sapiens)
chain: MGAAISQGALIAIVCNGLVGFLLLLLWVILCWACHSRSADVDSLSESSPNSSPGPCPEKAPPPQKPSHEGSYLLQP
- Blood glucose (900 nmol/kg/d ip): 474 mg/dL
- HOMA-IR (900 nmol/kg/d ip): 167
- HOMA-IR decrease as compared to the control group (900 nmol/kg/d ip): 29%
- Insulin (900 nmol/kg/d ip): 5.7 ng/mL
- Liver TG (900 nmol/kg/d ip): 40 mg/g
- Liver TG total (900 nmol/kg/d ip): 66 mg/g
- Liver lipid (900 nmol/kg/d ip): 82 mg/g
- Liver lipid total (900 nmol/kg/d ip): 137 mg/g
- Liver weight (900 nmol/kg/d ip): 1.6 g
- Liver weight % body weight (900 nmol/kg/d ip): 5.0%
- Weight (pre-treatment) (900 nmol/kg/d ip): 35.3 g
- Weight (termination) (900 nmol/kg/d ip): 33.0 g
- blood glucose levels decrease (900 nmol/kg/d ip): approximately 10%
- insulin levels reduction (900 nmol/kg/d ip): about 22%
- liver TG reduction as compared to the control group (900 nmol/kg/d ip): 32%
- Blood glucose [1]: 474 ± 29 mg/dL
- HOMA-IR [1]: 167 ± 18
- HOMA-IR decrease as compared to the control group [1]: (↓ 29%)
- Insulin [1]: 5.7 ± 0.5 ng/mL
- Liver TG [1]: 40 ± 8 mg/g
- Liver TG total [1]: 66 ± 13 mg/g
- Liver lipid [1]: 82 ± 9 mg/g
- Liver lipid total [1]: 137 ± 18 mg/g
- Liver weight [1]: 1.6 ± 0.1 g
- Liver weight % body weight [1]: 5.0 ± 0.2%
- Weight (pre-treatment) [1]: 35.3 ± 1.1 g
- Weight (termination) [1]: 33.0 ± 1.0 g
- Blood glucose (9000 nmol/kg/d ip): 480 mg/dL
- HOMA-IR (9000 nmol/kg/d ip): 213
- HOMA-IR decrease as compared to the control group (9000 nmol/kg/d ip): 9%
- Insulin (9000 nmol/kg/d ip): 7.0 ng/mL
- Liver TG total (9000 nmol/kg/d ip): 53 mg/g
- Liver lipid (9000 nmol/kg/d ip): 87 mg/g
- Liver lipid total (9000 nmol/kg/d ip): 143 mg/g
- Liver weight (9000 nmol/kg/d ip): 1.6 g
- Liver weight % body weight (9000 nmol/kg/d ip): 4.9%
- Weight (pre-treatment) (9000 nmol/kg/d ip): 35.6 g
- Weight (termination) (9000 nmol/kg/d ip): 33.1 g
- liver TG reduction as compared to the control group (9000 nmol/kg/d ip): 46%
- Liver TG (9000 nmol/kg/d ip, P < 0.05 vs control): 32 mg/g
- Liver TG (9000 nmol/kg/d ip, P < 0.05 vs control, listed as Enho-1): 32 ± 5 mg/g
- Blood glucose [2]: 480 ± 38 mg/dL
- HOMA-IR [2]: 213 ± 37
- HOMA-IR decrease as compared to the control group [2]: (↓ 9%)
- Insulin [2]: 7.0 ± 0.8 ng/mL
- Liver TG total [2]: 53 ± 11 mg/g
- Liver lipid [2]: 87 ± 6 mg/g
- Liver lipid total [2]: 143 ± 17 mg/g
- Liver weight [2]: 1.6 ± 0.1 g
- Liver weight % body weight [2]: 4.9 ± 0.3%
- Weight (pre-treatment) [2]: 35.6 ± 0.6 g
- Weight (termination) [2]: 33.1 ± 0.4 g

From US8518892B2, “Methods to treat symptoms of pathophysiology related to body mass” (Board of Supervisors of Louisiana State University and …, priority 2005, dated 2013)
